From patent US20230250178A1 come the findings set out here.

For one assay, the target named is murine CCR8 (mouse) (UniProt P56484). In words: FACS, BODIPY-labelled antibody, BW5147.3.
Assay [1] has as its target human CCR8 (human) (UniProt P51685). The assay is described as follows: FACS, BODIPY-labelled antibody, HuT78.
For assay [2] the target is unchanged. In words: cell-based or functional assay.
Assay [3] has the same target. In words: FACS, CHO-hCCR8.
In assay [4] the target is cynomolgus CCR8 (cynomolgus). The assay is described as follows: FACS, CHO-cynoCCR8.
cynomolgus CCR8 (cynomolgus), sequence (O97665 other isoform, or with tags, fused parts or gaps): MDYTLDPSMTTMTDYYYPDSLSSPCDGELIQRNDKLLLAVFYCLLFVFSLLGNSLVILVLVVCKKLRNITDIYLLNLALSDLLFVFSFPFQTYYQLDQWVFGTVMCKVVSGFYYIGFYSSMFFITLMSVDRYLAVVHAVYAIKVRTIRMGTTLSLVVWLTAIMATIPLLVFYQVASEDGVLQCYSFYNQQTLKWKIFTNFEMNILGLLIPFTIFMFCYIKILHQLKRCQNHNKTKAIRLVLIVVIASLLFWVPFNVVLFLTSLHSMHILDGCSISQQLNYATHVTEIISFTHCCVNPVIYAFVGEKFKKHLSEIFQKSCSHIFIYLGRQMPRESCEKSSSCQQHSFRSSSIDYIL
In assay [5] the target is FcRn of the FcRn column (Roche, Order No. 8128057001). In words: FcRn affinity chromatography, pH gradient.
FcRn of the FcRn column (Roche, Order No. 8128057001), sequence (P55899 24-297, chain 1 of 2): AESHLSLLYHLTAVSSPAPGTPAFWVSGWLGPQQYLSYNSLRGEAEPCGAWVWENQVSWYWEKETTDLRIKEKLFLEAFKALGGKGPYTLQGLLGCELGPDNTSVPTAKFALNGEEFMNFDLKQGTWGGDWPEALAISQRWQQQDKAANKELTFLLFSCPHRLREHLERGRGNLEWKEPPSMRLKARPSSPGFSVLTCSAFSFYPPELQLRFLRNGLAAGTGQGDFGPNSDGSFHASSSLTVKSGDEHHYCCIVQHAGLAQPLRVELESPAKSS
FcRn of the FcRn column (Roche, Order No. 8128057001), sequence (P61769 21-119, chain 2 of 2, further chain): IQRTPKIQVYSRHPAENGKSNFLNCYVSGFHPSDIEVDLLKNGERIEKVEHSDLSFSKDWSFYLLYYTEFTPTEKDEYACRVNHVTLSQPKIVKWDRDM
The target of a further assay is mouse FcRn (mouse) (UniProt Q61559). The assay is described as follows: SPR pH 6.0, FcRn immobilised.
mouse FcRn (mouse), sequence (Q61559 22-297 limits assumed, form in doubt): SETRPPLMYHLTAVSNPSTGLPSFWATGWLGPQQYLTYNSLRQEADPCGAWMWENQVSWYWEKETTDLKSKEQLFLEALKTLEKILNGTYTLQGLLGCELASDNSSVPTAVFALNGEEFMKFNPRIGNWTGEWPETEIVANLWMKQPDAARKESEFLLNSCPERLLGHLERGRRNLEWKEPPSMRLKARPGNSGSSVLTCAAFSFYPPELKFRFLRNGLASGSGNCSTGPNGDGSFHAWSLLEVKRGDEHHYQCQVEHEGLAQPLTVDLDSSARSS
Assay [6] deals with cynomolgus FcRn (cynomolgus) (UniProt Q8SPV9). In words: SPR pH 6.0, FcRn immobilised.
cynomolgus FcRn (cynomolgus), sequence (Q8SPV9 24-297 limits assumed, form in doubt): as the sequence (P55899 24-297, chain 1 of 2) above, with N39D, E44Q, G99S, S189G, S190N, L217M, S269T counted along it
A further assay deals with human FcRn (human) (UniProt P55899). The assay is described as follows: SPR pH 6.0, FcRn immobilised.
human FcRn (human), sequence (P55899 24-297 limits assumed, form in doubt): as the sequence (P55899 24-297, chain 1 of 2) above

Ustekinumab (antibody), sequence (HC): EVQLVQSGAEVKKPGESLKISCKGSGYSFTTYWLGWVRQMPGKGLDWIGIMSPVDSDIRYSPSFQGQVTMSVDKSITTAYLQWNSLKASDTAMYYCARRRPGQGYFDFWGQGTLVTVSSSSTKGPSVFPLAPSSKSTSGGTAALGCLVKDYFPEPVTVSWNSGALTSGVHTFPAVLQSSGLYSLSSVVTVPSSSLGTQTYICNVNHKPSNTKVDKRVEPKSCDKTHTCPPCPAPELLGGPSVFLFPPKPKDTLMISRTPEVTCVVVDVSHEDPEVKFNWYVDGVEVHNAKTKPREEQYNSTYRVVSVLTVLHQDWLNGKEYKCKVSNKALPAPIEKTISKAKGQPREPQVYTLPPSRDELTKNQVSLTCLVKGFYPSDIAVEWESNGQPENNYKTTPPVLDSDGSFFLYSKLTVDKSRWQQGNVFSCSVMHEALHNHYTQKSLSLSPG
Ustekinumab (antibody), sequence (LC): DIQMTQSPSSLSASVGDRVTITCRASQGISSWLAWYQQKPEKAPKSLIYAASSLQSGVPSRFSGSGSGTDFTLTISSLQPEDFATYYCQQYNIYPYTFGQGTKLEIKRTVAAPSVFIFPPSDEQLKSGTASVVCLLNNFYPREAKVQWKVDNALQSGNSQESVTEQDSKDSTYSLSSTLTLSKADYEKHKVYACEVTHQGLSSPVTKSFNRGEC
murine CCR8 (mouse), sequence (P56484 whole entry): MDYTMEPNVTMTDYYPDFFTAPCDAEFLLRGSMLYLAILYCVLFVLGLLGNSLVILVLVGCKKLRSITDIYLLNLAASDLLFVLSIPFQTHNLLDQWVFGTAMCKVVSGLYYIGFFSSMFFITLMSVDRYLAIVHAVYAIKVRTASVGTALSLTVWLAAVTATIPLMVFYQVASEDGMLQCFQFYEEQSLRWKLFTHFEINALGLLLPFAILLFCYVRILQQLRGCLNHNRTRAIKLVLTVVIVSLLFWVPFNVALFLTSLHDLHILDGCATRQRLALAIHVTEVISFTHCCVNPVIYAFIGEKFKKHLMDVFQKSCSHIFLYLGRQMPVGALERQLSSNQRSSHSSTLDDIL

The substance SA214G2 (antibody) came in with an FACS mBW5147.3 [MFI] in the assay with murine CCR8 (mouse) of 48 MFI.

L263G8 (antibody) came in with an FACS HuT78 [MFI] in the assay with human CCR8 (human) [1] of 40 MFI. Moreover, in the assay with human CCR8 (human) [2], the IC50, Ca flux assay was 1.26 nM and the IC50, inhibition of CCL1 induced β-arrestin signaling came to 13.8 nM. In the assay with human CCR8 (human) [3], this substance came in with an EC50 of 0.31 nM. In assay [4], this substance displayed a concentration for a half-maximal effect (EC50) of 132 nM.

In the assay with human CCR8 (human) [2], “CCL1 (human) (from UniProt P22362 24-96) (ligand)” gave an EC80, β-arrestin signaling (DiscoverX assay) of 0.02 µg/mL.

Regarding Briakinumab (antibody), in [5], the pH at Elution is 7.85 pH. For the same substance, the Kd stood at 560 nM in the assay with mouse FcRn (mouse), 160 nM in assay [6] and 230 nM in the assay with human FcRn (human).

Regarding Ustekinumab (antibody), the pH at Elution in [5] was 7.22 pH. For the same substance, the Kd in the assay with mouse FcRn (mouse) was determined as 71 nM; in assay [6], 260 nM; in the assay with human FcRn (human), 200 nM.
